Key:
[1] = system: HeLa Kyoto; experiment: solubility in G1/S (NP-40 vs SDS abundance) (log2 ratio); higher = more soluble; conditions: cell cycle stage: G1/S
[2] = system: HeLa Kyoto; experiment: melting temperature (median over replicates), in situ; higher = more thermally stable
[3] = system: HeLa Kyoto; experiment: solubility change mitosis vs G1/S (difference of NP-40 vs SDS log2 ratios) (log2 ratio difference); higher = more soluble in mitosis
[4] = system: HeLa Kyoto; experiment: thermal stability score vs G1/S (z-score of summed log2 fold changes over temperatures); higher = more thermally stable than in G1/S
[5] = cell cycle stage: early G1 (4.5 h after nocodazole release)
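Throughout, for melting temperature (median over replicates), in situ: HeLa Kyoto cells synchronized by double thymidine or nocodazole block, proteins quantified by TMT10plex mass spectrometry, three independent biological replicates.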
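Throughout, for solubility change mitosis vs G1/S (difference of NP-40 vs SDS log2 ratios): synchronized HeLa Kyoto cells (double thymidine block for G1/S, nocodazole release for mitosis), protein amounts in NP-40 versus SDS lysates quantified by mass spectrometry, three biological replicates.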
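Throughout, for solubility in G1/S (NP-40 vs SDS abundance): HeLa Kyoto cells arrested at G1/S by double thymidine block, proteins quantified by TMT10plex mass spectrometry in mild NP-40 versus SDS extracts, three biological replicates.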
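Throughout, for thermal stability score vs G1/S (z-score of summed log2 fold changes over temperatures): synchronized HeLa Kyoto cells, proteins quantified by TMT10plex mass spectrometry, three biological replicates, mitosis taken 0.5 h after nocodazole release, G1/S directly after double thymidine block.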

Substance	solubility in G1/S (log2) [1]	melting temperature ([2]; cell cycle stage: G1/S) [°C]	melting temperature ([2]; cell cycle stage: mitosis) [°C]	solubility change mitosis (log2) [3]	thermal stability score [4, 5]	thermal stability score ([4]; cell cycle stage: mitosis)
MVKEQFRETDVAKKISHICFGMKSPEEMRQQAHIQVVSKNLYSQDNQHAPLLYGVLDHRMGTSEKDRPCETCGKNLADCLGHYGYIDLELPCFHVGYFRAVIGILQMICKTCCHIMLSQEEKKQFLDYLKRPGLTYLQKRGLKKKISDKCRKKNICHHCGAFNGTVKKCGLLKIIHEKYKTNKKVVDPIVSNFLQSFETAIEHNKEVEPLLGRAQENLNPLVVLNLFKRIPAEDVPLLLMNPEAGKPSDLILTRLLVPPLCIRPSVVSDLKSGTNEDDLTMKLTEIIFLNDVIKKHRISGAKTQMIMEDWDFLQLQCALYINSELSGIPLNMAPKKWTRGFVQRLKGKQGRFRGNLSGKRVDFSGRTVISPDPNLRIDEVAVPVHVAKILTFPEKVNKANINFLRKLVQNGPEVHPGANFIQQRHTQMKRFLKYGNREKMAQELKYGDIVERHLIDGDVVLFNRQPSLHKLSIMAHLARVKPHRTFRFNECVCTPYNADFDGDEMNLHLPQTEEAKAEALVLMGTKANLVTPRNGEPLIAAIQDFLTGAYLLTLKDTFFDRAKACQIIASILVGKDEKIKVRLPPPTILKPVTLWTGKQIFSVILRPSDDNPVRANLRTKGKQYCGKGEDLCANDSYVTIQNSELMSGSMDKGTLGSGSKNNIFYILLRDWGQNEAADAMSRLARLAPVYLSNRGFSIGIGDVTPGQGLLKAKYELLNAGYKKCDEYIEALNTGKLQQQPGCTAEETLEALILKELSVIRDHAGSACLRELDKSNSPLTMALCGSKGSFINISQMIACVGQQAISGSRVPDGFENRSLPHFEKHSKLPAAKGFVANSFYSGLTPTEFFFHTMAGREGLVDTAVKTAETGYMQRRLVKSLEDLCSQYDLTVRSSTGDIIQFIYGGDGLDPAAMEGKDEPLEFKRVLDNIKAVFPCPSEPALSKNELILTTESIMKKSEFLCCQDSFLQEIKKFIKGVSEKIKKTRDKYGINDNGTTEPRVLYQLDRITPTQVEKFLETCRDKYMRAQMEPGSAVGALCAQSIGEPGTQMTLKTFHFAGVASMNITLGVPRIKEIINASKAISTPIITAQLDKDDDADYARLVKGRIEKTLLGEISEYIEEVFLPDDCFILVKLSLERIRLLRLEVNAETVRYSICTSKLRVKPGDVAVHGEAVVCVTPRENSKSSMYYVLQFLKEDLPKVVVQGIPEVSRAVIHIDEQSGKEKYKLLVEGDNLRAVMATHGVKGTRTTSNNTYEVEKTLGIEAARTTIINEIQYTMVNHGMSIDRRHVMLLSDLMTYKGEVLGITRFGLAKMKESVLMLASFEKTADHLFDAAYFGQKDSVCGVSECIIMGIPMNIGTGLFKLLHKADRDPNPPKRPLIFDTNEFHIPLVT [POLR3A]	-0.268	49.1	49.9	-0.101	0.905	2.38
MELPSGPGPERLFDSHRLPGDCFLLLVLLLYAPVGFCLLVLRLFLGIHVFLVSCALPDSVLRRFVVRTMCAVLGLVARQEDSGLRDHSVRVLISNHVTPFDHNIVNLLTTCSTPLLNSPPSFVCWSRGFMEMNGRGELVESLKRFCASTRLPPTPLLLFPEEEATNGREGLLRFSSWPFSIQDVVQPLTLQVQRPLVSVTVSDASWVSELLWSLFVPFTVYQVRWLRPVHRQLGEANEEFALRVQQLVAKELGQTGTRLTPADKAEHMKRQRHPRLRPQSAQSSFPPSPGPSPDVQLATLAQRVKEVLPHVPLGVIQRDLAKTGCVDLTITNLLEGAVAFMPEDITKGTQSLPTASASKFPSSGPVTPQPTALTFAKSSWARQESLQERKQALYEYARRRFTERRAQEAD [AUP1]	-0.262	50.9	50.6	-0.102	0.525	0.836
MWFFARDPVRDFPFELIPEPPEGGLPGPWALHRGRKKATGSPVSIFVYDVKPGAEEQTQVAKAAFKRFKTLRHPNILAYIDGLETEKCLHVVTEAVTPLGIYLKARVEAGGLKELEISWGLHQIVKALSFLVNDCSLIHNNVCMAAVFVDRAGEWKLGGLDYMYSAQGNGGGPPRKGIPELEQYDPPELADSSGRVVREKWSADMWRLGCLIWEVFNGPLPRAAALRNPGKIPKTLVPHYCELVGANPKVRPNPARFLQNCRAPGGFMSNRFVETNLFLEEIQIKEPAEKQKFFQELSKSLDAFPEDFCRHKVLPQLLTAFEFGNAGAVVLTPLFKVGKFLSAEEYQQKIIPVVVKMFSSTDRAMRIRLLQQMEQFIQYLDEPTVNTQIFPHVVHGFLDTNPAIREQTVKSMLLLAPKLNEANLNVELMKHFARLQAKDEQGPIRCNTTVCLGKIGSYLSASTRHRVLTSAFSRATRDPFAPSRVAGVLGFAATHNLYSMNDCAQKILPVLCGLTVDPEKSVRDQAFKAIRSFLSKLESVSEDPTQLEEVEKDVHAASSPGMGGAAASWAGWAVTGVSSLTSKLIRSHPTTAPTETNIPQRPTPEGVPAPAPTPVPATPTTSGHWETQEEDKDTAEDSSTADRWDDEDWGSLEQEAESVLAQQDDWSTGGQVSRASQVSNSDHKSSKSPESDWSSWEAEGSWEQGWQEPSSQEPPPDGTRLASEYNWGGPESSDKGDPFATLSARPSTQPRPDSWGEDNWEGLETDSRQVKAELARKKREERRREMEAKRAERKVAKGPMKLGARKLD [SCYL1]	-0.162	50.9	50.3	-0.184	0.0922	0.113
MSADGAEADGSTQVTVEEPVQQPSVVDRVASMPLISSTCDMVSAAYASTKESYPHIKTVCDAAEKGVRTLTAAAVSGAQPILSKLEPQIASASEYAHRGLDKLEENLPILQQPTEKVLADTKELVSSKVSGAQEMVSSAKDTVATQLSEAVDATRGAVQSGVDKTKSVVTGGVQSVMGSRLGQMVLSGVDTVLGKSEEWADNHLPLTDAELARIATSLDGFDVASVQQQRQEQSYFVRLGSLSERLRQHAYEHSLGKLRATKQRAQEALLQLSQVLSLMETVKQGVDQKLVEGQEKLHQMWLSWNQKQLQGPEKEPPKPEQVESRALTMFRDIAQQLQATCTSLGSSIQGLPTNVKDQVQQARRQVEDLQATFSSIHSFQDLSSSILAQSRERVASAREALDHMVEYVAQNTPVTWLVGPFAPGITEKAPEEKK [PLIN3]	0.715	56.7	57.3	0.0467	-0.144	0.126
MKQLPVLEPGDKPRKATWYTLTVPGDSPCARVGHSCSYLPPVGNAKRGKVFIVGGANPNRSFSDVHTMDLGKHQWDLDTCKGLLPRYEHASFIPSCTPDRIWVFGGANQSGNRNCLQVLNPETRTWTTPEVTSPPPSPRTFHTSSAAIGNQLYVFGGGERGAQPVQDTKLHVFDANTLTWSQPETLGNPPSPRHGHVMVAAGTKLFIHGGLAGDRFYDDLHCIDISDMKWQKLNPTGAAPAGCAAHSAVAMGKHVYIFGGMTPAGALDTMYQYHTEEQHWTLLKFDTLLPPGRLDHSMCIIPWPVTCASEKEDSNSLTLNHEAEKEDSADKVMSHSGDSHEESQTATLLCLVFGGMNTEGEIYDDCIVTVVD [RABEPK]	0.201	56.5	56	-0.084	-1.33	-1.94
MADAFGDELFSVFEGDSTTAAGTKKDKEKDKGKWKGPPGSADKAGKRFDGKLQSESTNNGKNKRDVDFEGTDEPIFGKKPRIEESITEDLSLADLMPRVKVQSVETVEGCTHEVALPAEEDYLPLKPRVGKAAKEYPFILDAFQREAIQCVDNNQSVLVSAHTSAGKTVCAEYAIALALREKQRVIFTSPIKALSNQKYREMYEEFQDVGLMTGDVTINPTASCLVMTTEILRSMLYRGSEVMREVAWVIFDEIHYMRDSERGVVWEETIILLPDNVHYVFLSATIPNARQFAEWICHLHKQPCHVIYTDYRPTPLQHYIFPAGGDGLHLVVDENGDFREDNFNTAMQVLRDAGDLAKGDQKGRKGGTKGPSNVFKIVKMIMERNFQPVIIFSFSKKDCEAYALQMTKLDFNTDEEKKMVEEVFSNAIDCLSDEDKKLPQVEHVLPLLKRGIGIHHGGLLPILKETIEILFSEGLIKALFATETFAMGINMPARTVLFTNARKFDGKDFRWISSGEYIQMSGRAGRRGMDDRGIVILMVDEKMSPTIGKQLLKGSADPLNSAFHLTYNMVLNLLRVEEINPEYMLEKSFYQFQHYRAIPGVVEKVKNSEEQYNKIVIPNEESVVIYYKIRQQLAKLGKEIEEYIHKPKYCLPFLQPGRLVKVKNEGDDFGWGVVVNFSKKSNVKPNSGELDPLYVVEVLLRCSKESLKNSATEAAKPAKPDEKGEMQVVPVLVHLLSAISSVRLYIPKDLRPVDNRQSVLKSIQEVQKRFPDGIPLLDPIDDMGIQDQGLKKVIQKVEAFEHRMYSHPLHNDPNLETVYTLCEKKAQIAIDIKSAKRELKKARTVLQMDELKCRKRVLRRLGFATSSDVIEMKGRVACEISSADELLLTEMMFNGLFNDLSAEQATALLSCFVFQENSSEMPKLTEQLAGPLRQMQECAKRIAKVSAEAKLEIDEETYLSSFKPHLMDVVYTWATGATFAHICKMTDVFEGSIIRCMRRLEELLRQMCQAAKAIGNTELENKFAEGITKIKRDIVFAASLYL [SKIV2L2]	-0.515	51.3	51.2	0.119	0.414	-1.19
MSDFDEFERQLNENKQERDKENRHRKRSHSRSRSRDRKRRSRSRDRRNRDQRSASRDRRRRSKPLTRGAKEEHGGLIRSPRHEKKKKVRKYWDVPPPGFEHITPMQYKAMQAAGQIPATALLPTMTPDGLAVTPTPVPVVGSQMTRQARRLYVGNIPFGITEEAMMDFFNAQMRLGGLTQAPGNPVLAVQINQDKNFAFLEFRSVDETTQAMAFDGIIFQGQSLKIRRPHDYQPLPGMSENPSVYVPGVVSTVVPDSAHKLFIGGLPNYLNDDQVKELLTSFGPLKAFNLVKDSATGLSKGYAFCEYVDINVTDQAIAGLNGMQLGDKKLLVQRASVGAKNATLVSPPSTINQTPVTLQVPGLMSSQVQMGGHPTEVLCLMNMVLPEELLDDEEYEEIVEDVRDECSKYGLVKSIEIPRPVDGVEVPGCGKIFVEFTSVFDCQKAMQGLTGRKFANRVVVTKYCDPDSYHRRDFW [U2AF2]	-0.395	49.7	50.5	0.177	1.65	5.33
MSLGRLCRLLKPALLCGALAAPGLAGTMCASRDDWRCARSMHEFSAKDIDGHMVNLDKYRGFVCIVTNVASQUGKTEVNYTQLVDLHARYAECGLRILAFPCNQFGKQEPGSNEEIKEFAAGYNVKFDMFSKICVNGDDAHPLWKWMKIQPKGKGILGNAIKWNFTKFLIDKNGCVVKRYGPMEEPLVIEKDLPHYF [GPX4]	0.136	56.3	56.3	-0.141	-2.51	-2.1
MRLPRRAALGLLPLLLLLPPAPEAAKKPTPCHRCRGLVDKFNQGMVDTAKKNFGGGNTAWEEKTLSKYESSEIRLLEILEGLCESSDFECNQMLEAQEEHLEAWWLQLKSEYPDLFEWFCVKTLKVCCSPGTYGPDCLACQGGSQRPCSGNGHCSGDGSRQGDGSCRCHMGYQGPLCTDCMDGYFSSLRNETHSICTACDESCKTCSGLTNRDCGECEVGWVLDEGACVDVDECAAEPPPCSAAQFCKNANGSYTCEECDSSCVGCTGEGPGNCKECISGYAREHGQCADVDECSLAEKTCVRKNENCYNTPGSYVCVCPDGFEETEDACVPPAEAEATEGESPTQLPSREDL [CRELD2]	0.092	57.2	59.6	-0.0918	-5.44	-1.73
PNKP	0.193	48.6	49.3	-0.0487	0.324	1.25
MFSRAGVAGLSAWTLQPQWIQVRNMATLKDITRRLKSIKNIQKITKSMKMVAAAKYARAERELKPARIYGLGSLALYEKADIKGPEDKKKHLLIGVSSDRGLCGAIHSSIAKQMKSEVATLTAAGKEVMLVGIGDKIRGILYRTHSDQFLVAFKEVGRKPPTFGDASVIALELLNSGYEFDEGSIIFNKFRSVISYKTEEKPIFSLNTVASADSMSIYDDIDADVLQNYQEYNLANIIYYSLKESTTSEQSARMTAMDNASKNASEMIDKLTLTFNRTRQAVITKELIEIISGAAALD [ATP5C1]	0.283	58	56.5	-0.0222	-0.727	-0.47

Source: the supplement of paper PMC5998384
